# Patent US20250277196A1, “EPSPS MUTANTS AND METHOD OF ITS USES” (CROPEDIT BIOTECHNOLOGY INC., priority 2021, published 2025)
# Numbering of substitutions follows the chain as printed. Names and notes keep the numbering of the source.
# B1: 1-552: rice EPSPS with G172A, P177S, K399N, V403A and T466S mutations (protein)
# chain: MAAKAEEIVLQPIREISGAVQLPGSKSLSNRILLLSALSEGTTVVDNLLNSEDVHYMLEALKALGLSVEADKVAKRAVVVGCGGKFPVEKDAKEEVQLFLGNAATAMRSLTAAVTAAGGNATYVLDGVPRMRERPIGDLVVGLKQLGADVDCFLGTECPPVRVKGIGGLPGGKVKLSGSISSQYLSALLMAAPLALGDVEIEIIDKLISIPYVEMTLRLMERFGVKAEHSDSWDRFYIKGGQKYKSPGNAYVEGDASSASYFLAGAAITGGTVTVQGCGTTSLQGDVKFAEVLEMMGAKVTWTDTSVTVTGPPREPYGKKHLKAVDVNMNNMPDAAMTLAVVALFADGPTAIRDVASWRVKETERMVAIRTELTKLGASVEEGPDYCIITPPEKLNITAIDTYDDHRMAMAFSLAACADVPVTIRDPGCTRKTFPNYFDVLSTFVRN
# modifications: This sequence is synthesized in lab.
# notes: rice EPSPS with G172A, P177S, K399N, V403A and T466S mutations
# B2: 2-46: rice EPSPS with G172A, P177S, N246D and V403A mutations (protein)
# chain: B1 chain with N249D, N331K
# modifications: This sequence is synthesized in lab.
# notes: rice EPSPS with G172A, P177S, N246D and V403A mutations
# B3: 2-5: rice EPSPS with E163K, G172A, P177S, A216V, L253M, H389R and V403A mutations (protein)
# chain: B1 chain with E95K, A148V, L185M, H321R, N331K
# modifications: This sequence is synthesized in lab.
# notes: rice EPSPS with E163K, G172A, P177S, A216V, L253M, H389R and V403A mutations
# B4: 1-599: rice EPSPS with A73G, L134F, G172A, P177S, G265V, S374R and V403A mutations (protein)
# chain: B1 chain with A5G, L66F, G197V, S306R, N331K
# modifications: This sequence is synthesized in lab.
# notes: rice EPSPS with A73G, L134F, G172A, P177S, G265V, S374R and V403A mutations
# B5: 3-33: rice EPSPS with G172A, P177S, V208A, L264H, V403A and R514K mutations (protein)
# chain: B1 chain with V140A, L196H, N331K, R446K
# modifications: This sequence is synthesized in lab.
# notes: rice EPSPS with G172A, P177S, V208A, L264H, V403A and R514K mutations
# B6: 2-47: rice EPSPS with G172A, M175A, P177S, M258L, K356E, V403A and F512I mutations (protein)
# chain: B1 chain with M107A, M190L, K288E, N331K, F444I
# modifications: This sequence is synthesized in lab.
# notes: rice EPSPS with G172A, M175A, P177S, M258L, K356E, V403A and F512I mutations
# B7: SEQ ID NO:19: rice EPSPS with A73K, D114H, V136M, K161E, G172A, P177S, A260T and V403A mutations; sample code not printed (protein)
# chain: B1 chain with A5K, D46H, V68M, K93E, A192T, N331K
# modifications: This sequence is synthesized in lab.
# B8: SEQ ID NO:23: rice EPSPS with A73S, G172A, P177S, L214F and V403A mutations; sample code not printed (protein)
# chain: B1 chain with A5S, L146F, N331K
# modifications: This sequence is synthesized in lab.
# System: Escherichia coli DH5α with EPSPS gene knocked out
# Test: Resistance test of rice EPSPS mutants from error-prone PCR on OsGPV: colony growth on medium with 0, 100 mM and 125 mM glyphosate (FIG. 7)
# Type: cell-based
# Conditions: 125 mM glyphosate pressure, FIG. 7
# From the text: In order to further improve the glyphosate resistance and develop highly resistant rice EPSPS mutants that can meet commercial production requirements, we used OsGPV as a template to perform random mutations, with high-concentration glyphosate screening, and to identify EPSPS mutant that can improve the glyphosate resistance.
# We used OsGPV(SEQ ID NO:6) as a template to perform error-prone PCR. (With GeneMorph II Random Mutagenesis Kit, #200550, Agilent Technologies).
# a) The recovered product was digested with EcoRI and SbfI, and then ligated to the pKED2 vector after the same double digestion with T4 DNA ligase to obtain the ligation product to obtain the vector carrying the rice EPSPS gene mutant.
# b) Transformed the above vector into Escherichia coli DH5α with EPSPS gene knocked out. The transformation steps were as follows: add the above ligation product to 50 μl E. coli DH5α competent cells with EPSPS gene knocked out, mix well and incubate on ice for 30 min, then after a heat shock at 42° C. for 90 s, immediately place it in an ice bath on ice for 2 min after taking it out. After the ice bath, add 500 μl of LB liquid medium and resuscitate at 37° C. at 180 r/min for 45 min. The transformed Escherichia coli was a mutant library expressing rice EPSPS mutant genes obtained on the template basis of OsGPV.
# 5) Centrifuged the transformed product obtained above at 3000 rpm for 5 min, discarded the supernatant, then resuspended it in 1 ml M9 liquid medium, added 200 μl M9 liquid medium to resuspend and inoculated it on an M9 plate containing 75 mM glyphosate. Incubated at 37 degrees for 24 hours.
# Pick and saved the single colonies grown in the above screening plates, and conduct further resistance identification and sequencing
# ii. Resistance test of rice mutants. In this example, the wild-type rice EPSPS gene OsWT, the most widely used commercial glyphosate-resistant gene CP4EPSPS, the rice mutantOsTIPS, which had the same mutation type with commercial glyphosate-resistant corn GA21, and the rice mutant OsGPV with the highly glyphosate-resistant rice EPSPS mutant gene obtained in this study were transformed as control, and the newly obtained rice EPSPS mutants were transformed as the experimental group, and the glyphosate resistance among the control and the mutants were compared. The monoclonal bacteria of the control group and the experimental group were respectively inoculated into a medium containing 0, 100 mM and 125 mM glyphosate, and the growth of colonies in each group was observed.
row,Molecule,colony growth status compared with OsGPV
1,B1,significantly higher than OsGPV
2,B2,significantly higher than OsGPV
3,B3,significantly higher than OsGPV
4,B4,significantly higher than OsGPV
5,B5,significantly higher than OsGPV
6,B6,significantly higher than OsGPV
7,B7,significantly higher than OsGPV
8,B8,significantly higher than OsGPV
